Experimental data as given in patent US20230140293A1.

How the values were obtained:
[1] = biological target: CH505 TF chimeric SOSIP.III trimer (CH505TFchim.6R.SOSIP.664V4.1) (HIV-1 (CH505 gp120 / BG505 gp41 chimera)); assay: negative stain EM; 1 to 1 ratio of CH103 and gp140
[2] = biological target: CH0505.w4.3 Env, Env-pseudotyped virus produced in 293T cells (HIV-1); assay: cell-based or functional assay
[3] = biological target: CH0505TF Env, Env-pseudotyped virus produced in 293T cells (HIV-1); assay: cell-based or functional assay
[4] = biological target: CH0505TF Env, pseudotyped virus produced in 293S GnTI- cells (HIV-1); assay: cell-based or functional assay
[5] = biological target: CH0505TF.G458Y Env, Env-pseudotyped virus produced in 293T cells (HIV-1); assay: cell-based or functional assay
[6] = biological target: CH0505TF.G458Y Env, pseudotyped virus produced in 293S GnTI- cells (HIV-1); assay: cell-based or functional assay
[7] = biological target: CH0505TF.gly3.197 Env, Env-pseudotyped virus produced in 293T cells (HIV-1); assay: cell-based or functional assay
[8] = biological target: CH0505TF.gly3.197 Env, pseudotyped virus produced in 293S GnTI- cells (HIV-1); assay: cell-based or functional assay
[9] = biological target: CH0505TF.gly3.276 Env, Env-pseudotyped virus produced in 293T cells (HIV-1); assay: cell-based or functional assay
[10] = biological target: CH0505TF.gly3.276 Env, pseudotyped virus produced in 293S GnTI- cells (HIV-1); assay: cell-based or functional assay
[11] = biological target: CH0505TF.gly3.461 Env, Env-pseudotyped virus produced in 293T cells (HIV-1); assay: cell-based or functional assay
[12] = biological target: CH0505TF.gly3.461 Env, pseudotyped virus produced in 293S GnTI- cells (HIV-1); assay: cell-based or functional assay
[13] = biological target: CH0505TF.gly4 Env, Env-pseudotyped virus produced in 293T cells (HIV-1); assay: cell-based or functional assay
[14] = biological target: CH0505TF.gly4 Env, pseudotyped virus produced in 293S GnTI- cells (HIV-1); assay: cell-based or functional assay
[15] = biological target: HIV-1 426c.DM (N460D/N463D) Env on Env-pseudotyped virus produced in 293T cells (HIV-1); assay: cell-based or functional assay
[16] = biological target: HIV-1 426c.DM (N460D/N463D) Env on Env-pseudotyped virus produced in 293s/GnTI-/- cells (Man5-enrichment) (HIV-1); assay: cell-based or functional assay
[17] = biological target: HIV-1 426c.SM (N276D) Env on Env-pseudotyped virus produced in 293T cells (HIV-1); assay: cell-based or functional assay
[18] = biological target: HIV-1 426c.SM (N276D) Env on Env-pseudotyped virus produced in 293s/GnTI-/- cells (Man5-enrichment) (HIV-1); assay: cell-based or functional assay
[19] = biological target: HIV-1 426c.TM (N276D/N460D/N463D) Env on Env-pseudotyped virus produced in 293T cells (HIV-1); assay: cell-based or functional assay
[20] = biological target: HIV-1 426c.TM (N276D/N460D/N463D) Env on Env-pseudotyped virus produced in 293s/GnTI-/- cells (Man5-enrichment) (HIV-1); assay: cell-based or functional assay
[21] = biological target: HIV-1 CH0505TF (CH505 transmitted/founder) Env on Env-pseudotyped virus produced in 293T cells (HIV-1); assay: cell-based or functional assay
[22] = biological target: HIV-1 CH0505TF Env on Env-pseudotyped virus produced in 293S/GnTI-/- cells (Man5-enrichment) (HIV-1); assay: cell-based or functional assay
[23] = biological target: HIV-1 CH0505TF.gly3.197 Env on Env-pseudotyped virus produced in 293S/GnTI-/- cells (Man5-enrichment) (HIV-1); assay: cell-based or functional assay
[24] = biological target: HIV-1 CH0505TF.gly3.197 Env on Env-pseudotyped virus produced in 293T cells (HIV-1); assay: cell-based or functional assay
[25] = biological target: HIV-1 CH0505TF.gly4 Env on Env-pseudotyped virus produced in 293S/GnTI-/- cells (Man5-enrichment) (HIV-1); assay: cell-based or functional assay
[26] = biological target: HIV-1 CH0505TF.gly4 Env on Env-pseudotyped virus produced in 293T cells (HIV-1); assay: cell-based or functional assay
[27] = biological target: HIV-1 Env 426c, Env-pseudotyped virus produced in 293S GnTI- cells (Man5-enriched) (HIV-1 clade C strain 426c); assay: cell-based or functional assay
[28] = biological target: HIV-1 Env 426c, Env-pseudotyped virus produced in 293T cells (HIV-1 clade C strain 426c); assay: cell-based or functional assay
[29] = biological target: HIV-1 Env 426c.DM (N460D.N463D), Env-pseudotyped virus produced in 293S GnTI- cells (Man5-enriched) (HIV-1 clade C strain 426c); assay: cell-based or functional assay
[30] = biological target: HIV-1 Env 426c.DM (N460D.N463D), Env-pseudotyped virus produced in 293T cells (HIV-1 clade C strain 426c); assay: cell-based or functional assay
[31] = biological target: HIV-1 Env 426c.SM (N276D), Env-pseudotyped virus produced in 293S GnTI- cells (Man5-enriched) (HIV-1 clade C strain 426c); assay: cell-based or functional assay
[32] = biological target: HIV-1 Env 426c.SM (N276D), Env-pseudotyped virus produced in 293T cells (HIV-1 clade C strain 426c); assay: cell-based or functional assay
[33] = biological target: HIV-1 Env 426c.TM (N276D.N460D.N463D), Env-pseudotyped virus produced in 293S GnTI- cells (Man5-enriched) (HIV-1 clade C strain 426c); assay: cell-based or functional assay
[34] = biological target: HIV-1 Env 426c.TM (N276D.N460D.N463D), Env-pseudotyped virus produced in 293T cells (HIV-1 clade C strain 426c); assay: cell-based or functional assay
[35] = biological target: HIV-1 Env 426c.TM4 (S278R.G471S.N460D.N463D), Env-pseudotyped virus produced in 293S GnTI- cells (Man5-enriched) (HIV-1 clade C strain 426c); assay: cell-based or functional assay
[36] = biological target: HIV-1 Env 426c.TM4 (S278R.G471S.N460D.N463D), Env-pseudotyped virus produced in 293T cells (HIV-1 clade C strain 426c); assay: cell-based or functional assay
[37] = biological target: HIV-1 clade C strain 426c Env on Env-pseudotyped virus produced in 293T cells (HIV-1); assay: cell-based or functional assay
[38] = biological target: HIV-1 clade C strain 426c Env on Env-pseudotyped virus produced in 293s/GnTI-/- cells (Man5-enrichment) (HIV-1); assay: cell-based or functional assay
[39] = biological target: HIV-1 CH0505TF (CH505 transmitted/founder) Env on Env-pseudotyped virus produced in 293T cells (HIV-1); assay: cell-based or functional assay; remark: listed apart in the source
[40] = biological target: HIV-1 CH0505TF.G458Y Env on Env-pseudotyped virus produced in 293T cells (HIV-1); assay: cell-based or functional assay
[41] = biological target: HIV-1 CH0505TF.N280D Env on Env-pseudotyped virus produced in 293T cells (HIV-1); assay: cell-based or functional assay
[42] = biological target: HIV-1 CH0505TF.S365P Env on Env-pseudotyped virus produced in 293T cells (HIV-1); assay: cell-based or functional assay

Substance CH103 Fab has a Fabs bound per trimer (Fab per trimer) [1] of 3.
VRC01 (antibody) showed an IC50 (µg/ml) in TZM-bl [2] of 0.05 µg/mL, an IC50 (µg/ml) in TZM-bl [3] of 0.1 µg/mL and an IC50 (µg/ml) in TZM-bl [4] of 0.03 µg/mL. For the same substance, the IC50 (µg/ml) in TZM-bl [5] was > 25 µg/mL, the IC50 (µg/ml) in TZM-bl [6] was 0.91 µg/mL and the IC50 (µg/ml) in TZM-bl [7] was 0.023 µg/mL. The IC50 (µg/ml) in TZM-bl [8] was 0.009 µg/mL, the IC50 (µg/ml) in TZM-bl [9] was 0.004 µg/mL and the IC50 (µg/ml) in TZM-bl [10] was 0.003 µg/mL. For the same substance, the IC50 (µg/ml) in TZM-bl [11] was 1.98 µg/mL, the IC50 (µg/ml) in TZM-bl [12] was 0.015 µg/mL and the IC50 (µg/ml) in TZM-bl [13] was 0.002 µg/mL. The IC50 (µg/ml) in TZM-bl [14] was 0.001 µg/mL, the ID50/IC50 in TZM-bl [15] was 0.41 mg/L and the ID50/IC50 in TZM-bl [16] was 0.04 mg/L. The ID50/IC50 in TZM-bl [17] was 0.39 mg/L, the ID50/IC50 in TZM-bl [18] was 0.04 mg/L and the ID50/IC50 in TZM-bl [19] was 0.03 mg/L. It also gave an ID50/IC50 in TZM-bl [20] of 0.015 mg/L, an IC50 (ug/ml) in TZM-bl cells [21] of 0.09 µg/mL and an IC50 (ug/ml) in TZM-bl cells [22] of 0.03 µg/mL. It also gave an IC50 (ug/ml) in TZM-bl cells [23] of 0.009 µg/mL, an IC50 (ug/ml) in TZM-bl cells [24] of 0.023 µg/mL and an IC50 (ug/ml) in TZM-bl cells [25] of 0.001 µg/mL. For the same substance, the IC50 (ug/ml) in TZM-bl cells [26] was 0.002 µg/mL, the IC50 (µg/ml) in TZM-bl [27] was 0.19 µg/mL and the IC50 (µg/ml) in TZM-bl [28] was 2.2 µg/mL. The IC50 (µg/ml) in TZM-bl [29] was 0.04 µg/mL, the IC50 (µg/ml) in TZM-bl [30] was 0.41 µg/mL and the IC50 (µg/ml) in TZM-bl [31] was 0.04 µg/mL. For the same substance, the IC50 (µg/ml) in TZM-bl [32] was 0.39 µg/mL, the IC50 (µg/ml) in TZM-bl [33] was 0.015 µg/mL and the IC50 (µg/ml) in TZM-bl [34] was 0.03 µg/mL. The IC50 (µg/ml) in TZM-bl [35] was 0.007 µg/mL, the IC50 (µg/ml) in TZM-bl [36] was 0.002 µg/mL and the ID50/IC50 in TZM-bl [37] was 2.2 mg/L. For the same substance, the ID50/IC50 in TZM-bl [38] was 0.19 mg/L, the IC50 (µg/ml) in TZM-bl [39] was 0.1 µg/mL and the IC50 (µg/ml) in TZM-bl [40] was > 25 µg/mL. For the same substance, the IC50 (µg/ml) in TZM-bl [41] was > 25 µg/mL and the IC50 (µg/ml) in TZM-bl [42] was 0.1 µg/mL.
